Results as given in IntAct's records for PubMed 15150219.

B1: Nitrogen regulatory protein P-II (Synechococcus elongatus (strain PCC 7942)), P0A3F4 (parent)
chain: MKKIEAIIRPFKLDEVKIALVNAGIVGMTVSEVRGFGRQKGQTERYRGSEYTVEFLQKLKLEIVVEDAQVDTVIDKIVAAARTGEIGDGKIFVSPVDQTIRIRTGEKNADAI
partner: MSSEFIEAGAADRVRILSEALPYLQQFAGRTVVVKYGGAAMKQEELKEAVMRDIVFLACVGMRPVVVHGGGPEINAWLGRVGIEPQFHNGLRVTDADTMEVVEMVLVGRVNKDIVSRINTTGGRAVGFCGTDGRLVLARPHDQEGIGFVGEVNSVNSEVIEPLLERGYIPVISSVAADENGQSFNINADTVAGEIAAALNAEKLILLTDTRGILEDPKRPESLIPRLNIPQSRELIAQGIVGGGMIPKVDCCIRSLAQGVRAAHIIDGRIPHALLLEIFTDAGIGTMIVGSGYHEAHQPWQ

Variants of: B1
Details: with argb_syne7 argB

effect of a mutation on the interaction | Variant
decreasing interaction | S49D
decreasing interaction | S49E
decreasing interaction | S49A
